The test concerns the target T1, GST-tagged CIP2A Armadillo repeat domain (ArmRD, aa 1-559) (human, UniProt Q8TCG1 1-559).
T1 construct: CIP2A, human, aa 1-559 (bases 1 through 1677 of the full length cDNA) cloned into pGEX-4T3; the results give the ArmRD as amino acids 1-560; the methods give the construct as aa 1-559; also called GST-ArmRP of CIP2A; GST-tagged ArmRD
Nature of the test: pull-down; 800 µg CHO protein extract with HA-TOPBP1 aa740-899 bound to anti-HA agarose beads (1 h, 4 °C), unbound fraction washed away, 5 µg purified GST-tagged ArmRD added for 90 min at 4 °C, washed 3 x 15 min with cold PBS; Western blot. The settings on record: both partners purified.

B1: HA-tagged TOPBP1 aa740-899 fragment expressed in ExpiCHO-S cells (domain or fragment, human, UniProt Q92547 740-899, looked up)
chain: NSTKEERSLETEITNGINLNSDTAEHPGTRLQTHRKTVVTPLDMNRFQSKAFRAVVSQHARQVAASPAVGQPLQKEPSLHLDTPSKFLSKDKLFKPSFDVKDALAALETPGRPSQQKRKPSTPLSEVIVKNLQLALANSSRNAVALSASPQLKEAQSEKE
notes: Same construct as m1, other host; source: ExpiCHO-S, transfected; not shown: HA, N-terminal, kept
Take B1: the binding result is recorded as “binds”.
